Results: paper PMC10373098 (Nature structural & molecular biology, 2022)

T1: RhCE (human (endogenous in erythrocytes), UniProt P18577 1-417)
T1 sequence (looked up): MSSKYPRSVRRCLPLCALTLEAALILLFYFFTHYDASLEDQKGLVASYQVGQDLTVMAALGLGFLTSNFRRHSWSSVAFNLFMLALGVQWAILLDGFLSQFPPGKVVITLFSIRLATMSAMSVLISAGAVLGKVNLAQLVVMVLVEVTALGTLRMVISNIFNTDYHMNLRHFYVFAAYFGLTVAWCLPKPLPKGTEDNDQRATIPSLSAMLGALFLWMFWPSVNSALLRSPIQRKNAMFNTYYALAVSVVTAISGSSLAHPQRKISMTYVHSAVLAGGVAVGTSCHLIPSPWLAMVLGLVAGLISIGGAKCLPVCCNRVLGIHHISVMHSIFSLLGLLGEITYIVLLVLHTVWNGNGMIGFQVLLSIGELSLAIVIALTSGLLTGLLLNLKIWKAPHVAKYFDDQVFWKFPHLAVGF

T2: band 3 anion exchanger (human (endogenous in erythrocytes), UniProt P02730 1-911)
T2 sequence (looked up): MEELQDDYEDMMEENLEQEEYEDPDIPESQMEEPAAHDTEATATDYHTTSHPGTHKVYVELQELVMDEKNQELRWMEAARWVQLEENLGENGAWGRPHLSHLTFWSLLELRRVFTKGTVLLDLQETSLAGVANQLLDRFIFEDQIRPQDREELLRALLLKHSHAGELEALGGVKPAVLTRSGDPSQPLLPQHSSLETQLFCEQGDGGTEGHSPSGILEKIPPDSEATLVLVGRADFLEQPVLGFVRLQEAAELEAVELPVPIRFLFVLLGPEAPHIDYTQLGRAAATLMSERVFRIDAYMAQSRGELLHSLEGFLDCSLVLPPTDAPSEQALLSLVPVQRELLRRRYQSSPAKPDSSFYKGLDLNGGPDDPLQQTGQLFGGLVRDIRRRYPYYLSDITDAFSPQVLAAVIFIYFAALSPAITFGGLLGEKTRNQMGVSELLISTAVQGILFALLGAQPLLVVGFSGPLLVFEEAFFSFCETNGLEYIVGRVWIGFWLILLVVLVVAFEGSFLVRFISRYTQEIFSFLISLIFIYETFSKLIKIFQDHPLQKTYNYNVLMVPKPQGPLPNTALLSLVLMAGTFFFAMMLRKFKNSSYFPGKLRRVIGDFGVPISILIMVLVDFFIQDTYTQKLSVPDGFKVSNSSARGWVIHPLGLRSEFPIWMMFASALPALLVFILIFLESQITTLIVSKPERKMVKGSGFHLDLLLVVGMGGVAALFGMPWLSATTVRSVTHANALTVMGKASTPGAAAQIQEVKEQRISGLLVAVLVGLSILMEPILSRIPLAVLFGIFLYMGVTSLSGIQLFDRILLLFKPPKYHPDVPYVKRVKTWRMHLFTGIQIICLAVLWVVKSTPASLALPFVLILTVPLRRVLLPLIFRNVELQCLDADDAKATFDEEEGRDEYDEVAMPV

B1: RhAG (natural protein, human (endogenous in erythrocytes), UniProt Q02094 1-409, looked up)
chain: MRFTFPLMAIVLEIAMIVLFGLFVEYETDQTVLEQLNITKPTDMGIFFELYPLFQDVHVMIFVGFGFLMTFLKKYGFSSVGINLLVAALGLQWGTIVQGILQSQGQKFNIGIKNMINADFSAATVLISFGAVLGKTSPTQMLIMTILEIVFFAHNEYLVSEIFKASDIGASMTIHAFGAYFGLAVAGILYRSGLRKGHENEESAYYSDLFAMIGTLFLWMFWPSFNSAIAEPGDKQCRAIVNTYFSLAACVLTAFAFSSLVEHRGKLNMVHIQNATLAGGVAVGTCADMAIHPFGSMIIGSIAGMVSVLGYKFLTPLFTTKLRIHDTCGVHNLHGLPGVVGGLAGIVAVAMGASNTSMAMQAAALGSSIGTAVVGGLMTGLILKLPLWGQPSDQNCYDDSVYWKVPKTR
B2: protein 4.2 (natural protein, human (endogenous in erythrocytes), UniProt P16452 1-691, looked up)
chain: MGQALGIKSCDFQAARNNEEHHTKALSSRRLFVRRGQPFTIILYFRAPVRAFLPALKKVALTAQTGEQPSKINRTQATFPISSLGDRKWWSAVVEERDAQSWTISVTTPADAVIGHYSLLLQVSGRKQLLLGQFTLLFNPWNREDAVFLKNEAQRMEYLLNQNGLIYLGTADCIQAESWDFGQFEGDVIDLSLRLLSKDKQVEKWSQPVHVARVLGALLHFLKEQRVLPTPQTQATQEGALLNKRRGSVPILRQWLTGRGRPVYDGQAWVLAAVACTVLRCLGIPARVVTTFASAQGTGGRLLIDEYYNEEGLQNGEGQRGRIWIFQTSTECWMTRPALPQGYDGWQILHPSAPNGGGVLGSCDLVPVRAVKEGTLGLTPAVSDLFAAINASCVVWKCCEDGTLELTDSNTKYVGNNISTKGVGSDRCEDITQNYKYPEGSLQEKEVLERVEKEKMEREKDNGIRPPSLETASPLYLLLKAPSSLPLRGDAQISVTLVNHSEQEKAVQLAIGVQAVHYNGVLAAKLWRKKLHLTLSANLEKIITIGLFFSNFERNPPENTFLRLTAMATHSESNLSCFAQEDIAICRPHLAIKMPEKAEQYQPLTASVSLQNSLDAPMEDCVISILGRGLIHRERSYRFRSVWPENTMCAKFQFTPTHVGLQRLTVEVDCNMFQNLTNYKSVTVVAPELSA
modifications: N-terminal glycine myristoylated
B3: glycophorin A (natural protein, human (endogenous in erythrocytes), UniProt P02724 20-150, looked up)
chain: LSTTEVAMHTSTSSSVTKSYISSQTNDTHKRDTYAATPRAHEVSEISVRTVYPPEEETGERVQLAHHFSEPEITLIIFGVMAGVIGTILLISYGIRRLIKKSPSDVKPLPSPDTDVPLSSVEIENPETSDQ
B4: aquaporin-1 (natural protein, human (endogenous in erythrocytes), UniProt P29972 1-269, looked up)
chain: MASEFKKKLFWRAVVAEFLATTLFVFISIGSALGFKYPVGNNQTAVQDNVKVSLAFGLSIATLAQSVGHISGAHLNPAVTLGLLLSCQISIFRALMYIIAQCVGAIVATAILSGITSSLTGNSLGRNDLADGVNSGQGLGIEIIGTLQLVLCVLATTDRRRRDLGGSAPLAIGLSVALGHLLAIDYTGCGINPARSFGSAVITHNFSNHWIFWVGPFIGGALAVLIYDFILAPRSSDLTDRVKVWTSGQVEEYDLDADDINSRVEMKPK
modifications: lipid-like density attached to Cys-87, assigned as a palmitoylation site

Tests used:
Assay in all cases: cryo-EM structure
cryo-EM structure = molecular target: the molecule itself
RhCE = molecular target: T1, RhCE
band 3 anion exchanger [1] = molecular target: T2, band 3 anion exchanger
band 3 anion exchanger [2] = molecular target: T2, band 3 anion exchanger; remark: listed apart in the source
protein 4.2 = molecular target: B2

Binder: B1
binding result (cryo-EM structure): binds
stoichiometry N (RhCE): 2 RhAG per RhCE

Binder: B2
binding result (band 3 anion exchanger [1]): binds

Binder: B3
stoichiometry N (band 3 anion exchanger [2]): 1 GPA per band 3 protomer

Binder: B4
binding result (protein 4.2): binds
